Consider twelve sequences from patent publication US20160257958.

In the first series the target is T1, biotinylated human D-hepcidin-25 (mirror-image peptide) (Homo sapiens) (UniProt P81172).
T1 sequence: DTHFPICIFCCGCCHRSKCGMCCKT
The series is described as follows: SPR. Conditions: 37 C, 1 mM Mg, 1 mM Ca.
On to “CGUGUGUAAAGUAGAGGACAAUUGUCGGCGUGAUAGUGCCACACG [229-B1-001 (D-RNA)]”, for which the Kd came to 0.5 nM.
Still for that read-out and setting: the figure for “GCACUCGUAAAGUAGAGGGACCCAGUCCGGCGUGAUAGUGCCGAGUGC [223-C5-001 (D-RNA)]” is 1.2 nM.

In the next series the target is T2, human hepcidin-25 (L-peptide) (Homo sapiens) (UniProt P81172).
T2 sequence: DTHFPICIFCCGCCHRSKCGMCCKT
In words: SPR. Conditions: L-RNA; 5'-40 kDa PEG; 37 C, 1 mM Mg, 1 mM Ca.
For “GCACUCGUAAAGUAGAGGGACCCAGUCCGGCGUGAUAGUGCCGAGUGC [223-C5-001-5'-PEG]”, the Kd was 4.44 nM.
The same measure, in the same setting: the figure for “GCGCCGUAUGGGAUUAAGUAAAUGAGGAGUUGGAGGAAGGGCGC [238-D4-008-5'-PEG (NOX-H94)]” is 0.64 nM; for “GCGCGCGUAUGGGAUUAAGUAAAUGAGGAGUUGGAGGAAGGCGCGC [238-D4-002-5'-PEG]” it is 0.53 nM; for “GCUGUGUAAAGUAGAGGACAAUUGUCGGCGUGAUAGUGCCACAGC [229-B1-002-5'-PEG]” it is 1.92 nM.
Same read-out and setting: the value for “GGCCGGACAGCCGGGGGACACCAUAUACAGACUACGAUACGGCC [238-C4-006-5'-PEG]” was 0.76 nM.

Still in this series, the particulars now being: L-RNA; 37 C, 1 mM Mg, 1 mM Ca.
Take “AGCGUGUCGUAUGGGAUUAAGUAAAUGAGGAGUUGGAGGAAGGGCAUGCU [238-D4-001 (L-RNA)]”: the Kd was 0.51 nM.
Still for that read-out and setting: the figure for “AGGCUCGGACAGCCGGGGGACACCAUAUACAGACUACGAUACGGGCCU [238-C4-001 (L-RNA)]” is 0.9 nM; for “GCACUCGUAAAGUAGAGGGACCCAGUCCGGCGUGAUAGUGCCGAGUGC [223-C5-001 (L-RNA)]” it is 2.7 nM.
On the same count and under the same terms, the figure for “GCUGUGUAAAGUAGAGGACAAUUGUCGGCGUGAUAGUGCCACAGC [229-B1-002 (L-RNA)]” is 1.47 nM.

The series is the same for the next values; noted with them: L-RNA; 37 C, data not shown.
With “CGUGUGUAAAGUAGAGGACAAUUGUCGGCGUGAUAGUGCCACACG [229-B1-001 (L-RNA)]”, the Kd was found to be 1.25 nM.

What is called Kd is the concentration at which binding is half-saturated.
